T1: human NKp30-his protein (KACTUS; Cat: NKP-HM430) (human, UniProt O14931 19-135, limits assumed)
T1 construct: Bought protein (KACTUS NKP-HM430); not shown: His tag
T1 sequence (looked up): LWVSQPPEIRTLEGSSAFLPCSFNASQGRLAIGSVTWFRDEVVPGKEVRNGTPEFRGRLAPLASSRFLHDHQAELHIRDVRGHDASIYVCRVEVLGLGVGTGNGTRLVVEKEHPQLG

B1: antibody 18-hu1 (antibody, V domains shown)
VH: EVQLVESGGGLVQPGGSLRLSCAASGIRFSIANMGWYRQAPGKLHEMVSGITSDGFTNYADSVKGRFTISRDNSKNTLYLQMNSLRAEDTAVYYCAKFPTRHYWGQGTLVTVSS
B2: antibody 18-hu2 (antibody, V domains shown)
VH: EVQLVESGGGLVQPGGSLRLSCAASGIRFSIANMGWYRQAPGKLHEMVAGITSDGFTNYADSVKGRFTISRDNSKNTLYLQMNSLRAEDTAVYYCAKFPTRHYWGQGTLVTVSS
B3: antibody 10-hu4 (antibody, V domains shown)
VH: EVQLVESGGGLVQPGGSLRLSCAASGITFSRSVMGWFRQAPGKLRELVAGITSDDNTDYADSVKGRFTISRDNSKNTLYLQMNSLRAEDTAVYYCNILPDSRLGWGQGTLVTVSS
B4: antibody 10-hu3 (antibody, V domains shown)
VH: EVQLVESGGGLVQPGGSLRLSCAASGITFSRSVMGWFRQAPGKLRELVAGITSDDNTDYADSVKGRFTISRDNSKNTLYLQMNSLRAEDTAVYYCAILPDSRLGWGQGTLVTVSS
B5: antibody 10-hu1 (antibody, V domains shown)
VH: EVQLVESGGGLVQPGGSLRLSCAASGITFSRSVMGWFRQAPGKLRELVSGITSDDNTDYADSVKGRFTISRDNSKNTLYLQMNSLRAEDTAVYYCARLPDSRLGWGQGTLVTVSS
B6: antibody 10-hu2 (antibody, V domains shown)
VH: EVQLVESGGGLVQPGGSLRLSCAASGITFSRSVMGWFRQAPGKLRELVAGITSDDNTDYADSVKGRFTISRDNSKNTLYLQMNSLRAEDTAVYYCARLPDSRLGWGQGTLVTVSS
B7: antibody 17 (antibody, V domains shown)
VH: QLQLVESGGGLVQPGGSLRLSCAASGSIDSINAMGWYRQAPGKLRELVAGITRGGDVNYADSVKGRFTISRVDARNTVTVYLQMNSLKPEDTAVYYCNNLGFPSDWAQGTQVTVSS
notes: expressed in CHO cells
B8: antibody 20 (antibody, V domains shown)
VH: EVQLVESGGGLVQPGGSLRLSCAASGSAFSIEPWGWYRQAPGQLRELVAGITSDDKTDYADSVKDRFTISRDNAKNTVFLQMNSLKPEDTAVYYCNVLGWPRDDYWGQGTQVTVSS
notes: expressed in CHO cells
B9: antibody 7 (antibody, V domains shown)
VH: EVQVVESGGGLVQAGGSLRLSCAASGRTFSNYNVGWFRQAPGKEREFLATISESGGSTYYADSVKGRFTISRDNGINMVYLQMSSLKPEDTAVYYCAESRIFSFSYADGRGYAYWGQGTQVTVFS
notes: expressed in CHO cells
B10: antibody 9 (antibody, V domains shown)
VH: QVQLVESGGGSVQAGGSLRLSCAASGRTFSDYVMGWFRQAPGKEREFVGTITRIGGMPYYADFVKGRFTISRDYAKNAGYLQLNNLKPEDTALYYCALDLRLRLGVTPREYDYWGQGTQVTVSS
notes: expressed in CHO cells
B11: antibody 6 (antibody, V domains shown)
VH: QVQLVESGGGLVQPGGSLRLSCAASRAIFPEYSIAWFRQAPGKEREGVALVSRIGDRVDYADSVKGRFTISRDNAKNTVYLQMNSLKPEDTAVYHCAAGQLSSSTYYGDEYVYWGQGTQVTVSS
notes: expressed in CHO cells
B12: antibody 3 (antibody, V domains shown)
VH: QLQLVESGGGLVQTGDSTKLSCTASGRSFSINDMGWYRQAPGKLRELVAGITSGGSTNYADSVKGRFTISRDNAKNTVYLQMNSLKPEDTAVYYCNVLGWPDFGSWGQGTQVTVSS
notes: expressed in CHO cells
B13: antibody 1 (antibody, V domains shown)
VH: QLQLVESGGGTVQTGGSLRLACVVSGPTYSFYDMGWFRRAPGKEREFVAAVTASGDTTIYADSVKGRFTIARDNAKNTVYLQMNSLKSEDTGAYYCAAGEYSSTAATYYYWGQGTQVTVSS
notes: expressed in CHO cells
B14: antibody 8 (antibody, V domains shown)
VH: QVQLVESGGGLVQTGDSLRLSCAASGRTYDNYAMGWFRQAPGKEREFVAAFSQNGGRTDYADSVKGRFAISDDRSTVHLDMNSLLPEDTAVYYCAARPPAYFSNAVYSKVDEYRYWGQGTQVTVSS
notes: expressed in CHO cells
B15: antibody 11 (antibody, V domains shown)
VH: EVQLVESGGGLVQPGESLRLSCVASGGDFRFKSMGWYRQAPGKLRELVAGITTGGVTDYADSVKGRFTISRDNANKAVWLQMNRLKPDDTAVYDCNTLGAAAYDWGQGTQVTVSS
notes: expressed in CHO cells
B16: antibody 4 (antibody, V domains shown)
VH: QVQLVESGGGLVQPGGSLRLSCAASGSIFKINAMGWYRQAPGKLRELVAGITSGGSTNYADSVKGRFTISRDNAKNTLYLQMNSLKPDDTAVYYCNQLGFPQYWGQGTQVTVSS
notes: expressed in CHO cells
B17: antibody 12 (antibody, V domains shown)
VH: EVQLVESGGDLVQPGGSLRLSCAAFGSSFSIDMMGWYRQVPGKQRELVAGITKGGFADYADSVKGRFTISMDAAKNTVYLQMNSLKPEDTAVYYCNTLPTHSDWGQGTQVTVSS
notes: expressed in CHO cells
B18: antibody 19 (antibody, V domains shown)
VH: EVQVVESGGDLVQPGGSLRLSCAAFGSSFSIDMMGWYRQVPGKQRELVAGITKGGFADYADSVKGRFTISMDAAKNTVYLQMNSLKPEDTAVYYCNTLPTHSDWGQGTQVTVSS
notes: expressed in CHO cells
B19: antibody 2 (antibody, V domains shown)
VH: QVQLVESGGGLVQPGGSLRLSCAASGSIFSVNEMGWYRQAPGKLRELVAAITSDGTTAYADSVKGRFTISRDNAKNTVYLQMNSLKPEDTAVYDCNTWPEARGDWGQGTQVTVSS
notes: expressed in CHO cells
B20: antibody 14 (antibody, V domains shown)
VH: QLQLVESGGGLVQPGGSLRLSCAVSASIFSVNEMGWYRQAPGKLRELVAAITSDGTTAYADSVKGRFTISRDNAKNTVYLQMNSLKPEDTAVYDCNTWPQARGDWGQGTQVTVSS
notes: expressed in CHO cells
B21: antibody 13 (antibody, V domains shown)
VH: EVQLVESGGGLVQPGGSLRLSCAASGGIFGSTHMGWYRQAPGKLREMVAGITSTGNHRNVADSVKGRFTISKDNAKNTLYLQMNSLKPEDTAVYYCNSFPDQVFNWGQGTQVTVSS
notes: expressed in CHO cells
B22: antibody 15 (antibody, V domains shown)
VH: EVQLVESGGGSVQTGGSLRLSCAASGPTFNFYGMAWFRQAPGKEREFVASIIPGSGDTSYASSVRGRFTISEDNARNNAYLQMNTLKPEDTAVYYCAAGTGGIYSSDYPYWGQGTQVTVSS
notes: expressed in CHO cells
B23: antibody 22 (antibody, V domains shown)
VH: QVQLVESGGGLVQPGGSLRLSCAASGSIFSANVMGWYRQAPGKLRELVAGMHSGGSANYADSVKGRFTISKDNAKNTMYLQMNSLKPEDTAVYYCNFGLGFDGHDYWGQGTQVTVSA
notes: expressed in CHO cells
B24: antibody 21 (antibody, V domains shown)
VH: EVQLVESGGGLVQPGGSLRLSCAASGSTYAFYNMGWFRQRPGKEREFAAAILWGRSGVYTTYADSVKGRFTISRDNAQNTVYLQMNSLKPEDTAVYYCAAGLGTMRANEYDYWGQGTQVTVSS
notes: expressed in CHO cells
B25: antibody 5 (antibody, V domains shown)
VH: EVQVVESGGGLVQAGGSLTLSCAASGRPFSTFPTSMGWFRQAPGKEREFVAAISESGLNTYYRDSVKGRFGISRDNAKNTVYLQMNTLTAEDTAVYFCAAAPGYMTTDSQYYLGNKYQYWGQGTQVTVSS
notes: expressed in CHO cells
B26: antibody 16 (antibody, V domains shown)
VH: EVQLVESGGGLVQAGGSLRLSCAASGISLITYNMGWYRQAPGKLRELVAGITTGGITDYTDSVKGRFTISRDNAKNTLYLQMNSLKPEDTAVYYCDTLGMANYWGQGTQVTVSS
notes: expressed in CHO cells

The target in the first assay is T1, human NKp30-his protein (KACTUS; Cat: …). Nature of the assay: ELISA, Human-NKp30-His coated at 0.2 µg/mL, antibody from 10 µg/mL in 3-fold steps, goat anti-human Fc, OD450 (Example 11). The procedure: Human-NKp30-His (purchased from KACTUS, item No. NKP-HM430) was diluted to 0.2 μg/mL with the coating solution (1×PBS, pH 7.4), and was coated into 96-well enzyme-labelled plates at 100 μL/well and allowed to stand overnight at 4° C. The coating solution was poured off, the plate was washed with 1×PBST at 300 μL/well, washed with a plate washer for 4 times, and patted dry on a plate paper. The plate was blocked with 3% skimmed milk powder at 300 μL/well, and incubated at 37° C. for 1 h. The blocking solution was poured off, washed with a plate washer for 4 times, and patted dry on a plate paper. The reference product and the test product were diluted with 3% skimmed milk powder to 10 μg/mL, and the initial concentration was diluted by 3 times. A total of 11 gradients were diluted, and another blank well was set, and only diluent was added. It was incubated at 37° C. and 100 μL/well for 1 h. Liquid in the wells was discarded, and washed with a plate washer for 4 times, and patted dry on a plate paper. The goat anti-human Fc was diluted with 3% skimmed milk powder at 1: 20,000 and 100 μL/well, and incubated at 37° C. for 1 h. The plate was washed with a plate washer for 6 times, and patted dry on a plate paper. TMB color developing solution was added at 100 μL/well, and wrapped with an aluminum foil, and the color was developed at 37° C. for 8 minutes, protected from light. The termination solution 1 M HCl was added at 100 μL/well to terminate the color development reaction. It was read at 450 nm on an enzyme-labeled instrument.
The term EC50 denotes the concentration that produces a half-maximal response. Regarding B1, the 50% effective concentration (EC50) amounted to 0.0348 µg/mL.
B2 came in with an EC50 of 0.0105 µg/mL.
As for B3, the response was half-maximal at 0.00719 µg/mL (EC50). The EC50 values of the last two molecules are within 1.5-fold of each other.
Turning to B4, the EC50 was determined as 0.0118 µg/mL.
For the molecule B5, the half-maximal effective concentration (EC50) is 0.378 µg/mL.
As to B6, the concentration giving a half-maximal response (EC50) is 0.0246 µg/mL.

For a further assay the target is unchanged. Briefly: BLI (Octet Red96e), antibody captured on AHC sensor, 100 nM human NKp30-his in solution, 1:1 fit. The procedure: After equilibration of the AHC sensor with 0.02% PBST (0.02% Tween 20, pH 7.4, 1*PBS) as buffer for 60 s, the NKp30 antibody in the sample plate was immobilized for 300 s and second equilibration was performed for 180 s. […] human NKp30-his protein (KACTUS; Cat: NKP-HM430) was bound with NKp30 antibody for 300 s and then dissociated for 600 s. After dissociation, 10 mM glycine (pH 2.0) was used as regeneration buffer to regenerate for 30 s.
Subtract the result plot for reference channel H1 from the test result plot. The experimental data fit the 1:1 binding model. The molecular weight of 35 kDa was used to calculate the molar concentration of human NKp30 protein.
As usually defined, the Kd is a measure of binding affinity in units of concentration. Lower therefore signals tighter binding. B7 had a Kd of 1.26 nM.
With B8, the affinity, expressed as Kd, was 1.25 nM.
The same measure, in the same setting: the same measure for B9: 9.64 nM; for B10: 5.56 nM; for B11: 2.88 nM.
B12 came in with a Kd of 2.07 nM.
B13 yielded a dissociation constant Kd of 1.46 nM.
Still for that read-out and setting: the same measure for B14: 9.11 nM; for B15: 3.06 nM.
B16: the affinity, expressed as Kd, was 4.97 nM.
The same measure, in the same setting: the same measure for B17: 0.491 nM; for B18: 1.81 nM; for B19: 0.597 nM.
Take B20: the Kd was 1.35 nM.
B21 returned a Kd of 0.433 nM.
Still for that read-out and setting: the same measure for B22: 0.347 nM; for B23: 2.31 nM.
Take B24: the Kd amounted to 20.1 nM.
In turn, B25 returned a Kd of 104 nM.
Molecule B26 gave a dissociation constant Kd of 0.997 nM.
